Results on three compounds are retold here after article PMC3781208 (Chemistry & biology, 2013).

Positions of bridges follow the written chain, without caps; N, C: chain ends. Non-standard residues stand in square brackets, D forms with d. Residues, ends and D or L forms follow the SMILES beside them. *: point of attachment. FITC = O=C1OC2(c3ccc(O)cc3Oc3cc(O)ccc32)c2ccc(NC(=S)*)cc21; S5 = C=CCCC[C@](C)(N)C(=O)O; Nle = CCCC[C@H](N)C(=O)O; βAla = NCCC(=O)O

The target in one assay is BAXΔC (Homo sapiens, UniProt Q07812). Description: Fluorescence polarization binding assay, BAXΔC. The settings on record: ratio of FP KDs. Background: Fluorescence polarisation rises when a labelled molecule tumbles more slowly, as on binding a larger partner.
BAXΔC, sequence (Q07812 whole entry, stated change not applied): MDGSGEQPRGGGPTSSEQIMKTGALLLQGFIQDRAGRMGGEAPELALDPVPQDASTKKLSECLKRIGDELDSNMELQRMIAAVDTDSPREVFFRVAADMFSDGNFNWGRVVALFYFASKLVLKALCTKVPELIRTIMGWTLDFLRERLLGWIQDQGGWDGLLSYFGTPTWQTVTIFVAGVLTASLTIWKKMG
A further assay concerns the target FITC-PUMA SAHBF1 (UniProt Q9BXH1). The assay can be described thus: fluorescence polarisation.
For assay [1], the target named is FITC-PUMA BH3 (aa 131–153) (UniProt Q9BXH1). Description: fluorescence polarisation.
FITC-PUMA BH3 (aa 131–153), sequence (Q9BXH1 131-153): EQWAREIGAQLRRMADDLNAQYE

Usually Kd stands for the free concentration of one partner at which half of the binding sites on the other are occupied at equilibrium, for simple one-to-one binding. Lower therefore signals a tighter complex.

With `CCCC[C@@H]1NC(=O)[C@@](C)(NC(=O)[C@H](CCCNC(=N)N)NC(=O)[C@H](CC(C)C)NC(=O)[C@H](CCC(N)=O)NC(=O)[C@H](C)NC(=O)CNC(=O)[C@@H](NC(=O)[C@H](CCC(=O)O)NC(=O)[C@H](CCCNC(=N)N)NC(=O)[C@H](C)NC(=O)[C@H](Cc2c[nH]c3ccccc23)NC(=O)[C@H](CCC(N)=O)NC(=O)[C@H](CCC(=O)O)NC(=O)CCNC(=S)Nc2ccc3c(c2)C(=O)OC32c3ccc(O)cc3Oc3cc(O)ccc32)[C@@H](C)CC)CCCC=CCCC[C@@](C)(C(=O)N[C@@H](CC(C)C)C(=O)N[C@@H](CC(N)=O)C(=O)N[C@@H](C)C(=O)N[C@@H](CCC(N)=O)C(=O)N[C@@H](Cc2ccc(O)cc2)C(=O)N[C@@H](CCC(=O)O)C(N)=O)NC(=O)[C@H](CC(=O)O)NC(=O)[C@H](C)NC1=O` [FITC-PUMA SAHBA1] ({FITC-βAla}-EQWAREIGAQLR[S5][Nle]AD[S5]LNAQYE-NH2; staple 13-17; N-terminus and C-terminus assumed), the “preference for BAXΔC over BAX A112C/V177C” value on BAXΔC is 3 fold.

As for BAXΔC (domain or fragment), the Kd with FITC-PUMA SAHBF1 was 70 nM; in assay [1], 306 nM. Compound “BAX A112C/V177C (from UniProt Q07812 1-192) (natural protein)” displayed a Kd with FITC-PUMA SAHBF1 of 90 nM.
